For two molecules, IFNγ production by TCR-transduced T cells (relative) results are on record in US20240189352A1.

The target in this assay is RAC2^P29L peptide … presented by HLA-A2 (peptide-loaded T2 cells) (human). Nature of the assay: cell-based or functional assay.

B1: RAC2-T002 TCR (TCR)
TCR alpha: AQSVTQLGSHVSVSEGALVLLRCNYSSSVPPYLFWYVQYPNQGLQLLLKYTTGATLVKGINGFEAEFKKSETSFHLTKPSAHMSDAAEYFCAVGANNLFFGTGTRLTVIPY
TCR beta: EPEVTQTPSHQVTQMGQEVILRCVPISNHLYFYWYRQILGQKVEFLVSFYNNEISEKSEIFDDQFSVERPDGSNFTLKIRSTKLEDSAMYFCASSEWRGSSYNEQFFGPGTRLTVL
Molecule B1 came in with an IFNγ production by TCR-transduced T cells (relative) of 100%.

B2: RAC2-T001 TCR (TCR)
TCR alpha: GENVEQHPSTLSVQEGDSAVIKCTYSDSASNYFPWYKQELGKGPQLIIDIRSNVGEKKDQRIAVTLNKTAKHFSLHITETQPEDSAVYFCAASMGNAGNMLTFGGGTRLMVKPH
TCR beta: EPEVTQTPSHQVTQMGQEVILRCVPISNHLYFYWYRQILGQKVEFLVSFYNNEISEKSEIFDDQFSVERPDGSNFTLKIRSTKLEDSAMYFCASSETSGASYEQYFGPGTRLTVT
B2: the IFNγ production by TCR-transduced T cells (relative) turned out to be 100%.
